# In paper doi:10.1101/2023.07.24.550319:
# Biological target: PP1c^1-293 (potato Protein Phosphatase 1-c isoform-3) (potato)
# Test: ITC
binder,measurement,value
Pi04314 WY-only (domain or fragment) DLLGLFAKSKLKKMMKSESFKLKRFGEWDDFTVGYIREKLKNKYPDLLLNYLNVYKKAGNEIVR,Kd,12.2 µM
